Experiment: Stability of antibody conjugated beads (supernatant SDS-PAGE, Coomassie blue)
Type: physicochemical
Method: To assess stability of the anti-ID conjugated beads, the beads were pelleted, the supernatant was removed and loaded on a 4-12% Bis-Tris SDS-PAGE gel and the gel was stained with Coomassie blue. As a control for total protein conjugated on the beads, the pelleted beads were boiled in 4× (lithium dodecyl sulfate) LDS sample buffer at about 70° C. for 20 minutes and approximately 12.5 μL or 25 μL boiled supernatant also was run on SDS-PAGE gel and assessed by Coomassie blue. Approximately 2.5 μg or 5.0 μg anti-ID antibody that had not been conjugated to the beads (positive control) or 5 μL 0.1% HSA (negative control) also were assessed by SDS-PAGE and Coomassie blue staining.
Stability of the antibody conjugated beads was assessed by pelleting the antibody-conjugated beads, running the resultant supernatant on an 4-12% Bis-Tris gel, and staining the gel for protein with Coomassie blue. As a control for total protein conjugated on the beads, a 10 μL sample of supernatant from pelleted beads that were boiled in LDS sample buffer also was assessed. […] Bands corresponding to the antibodies were detected in the sample with the supernatant from the boiled sample.
Stability of the antibody conjugated beads was assessed by pelleting the antibody-conjugated beads, running the resultant supernatant on an 4-12% Bis-Tris gel, and staining the gel for protein with Coomassie blue. […]

B1: anti-ID conjugated beads: FMC63-derived scFv-specific anti-idiotype antibody (B-1 in Examples 10-14) covalently coupled to tosyl-activated magnetic beads (conjugate)
heavy: EVQLQQSGPELVKPGASVKMSCKASGYTFTDYYMKWVKQCHGKSLEWIGDINPNNGGTDYNQNFKGKATLTVDKSSSTAYMQLNSLTSEDSAVYYCAREGNNYGSRDAMDYWGQGTSVTVSSAKTTAPSVYPLAPVCGDTTGSSVTLGCLVKGYFPEPVTLTWNSGSLSSGVHTFPAVLQSDLYTLSSSVTVTSSTWPSQSITCNVAHPASSTKVDKKIEPRGPTIKPCPPCKCPAPNLLGGPSVFIFPPKIKDVLMISLSPIVTCVVVDVSEDDPDVQISWFVNNVEVHTAQTQTHREDYNSTLRVVSALPIQHQDWMSGKEFKCKVNNKDLPAPIERTISKPKGSVRAPQVYVLPPPEEEMTKKQVTLTCMVTDFMPEDIYVEWTNNGKTELNYKNTEPVLDSDGSYFMYSKLRVEKKNWVERNSYSCSVVHEGLHNHHTTKSFSRTPGK
light: QIVLTQSPALMSASPGEKVTMTCSASSGVIYMYWYQQKPRSSPKPWIYLTSNLASGVPARFSGSGSGTSYSLTISSMEAEDAATYYCQQWSSNPLTFGAGTKLELKRADAAPTVSIFPPSSEQLTSGGASVVCFLNNFYPKDINVKWKIDGSERQNGVLNSWTDQDSKDSTYSMSSTLTLTKDEYERHNSYTCEATHKTSTSPIVKSFNRNEC
For B1, the “stability of the conjugation” value was “the conjugation was stable”.

Source: patent US20230242654A1, “REAGENTS FOR EXPANDING CELLS EXPRESSING RECOMBINANT RECEPTORS” (Juno Therapeutics, Inc., priority 2017, published 2023)
